Our source for the Kd and BRET ratio values is publication doi:10.1101/2025.06.12.659319.

Assay [1] has as its target FITC-ΔNp63α NLSbip peptide (residues 278-302) (human). The assay can be described thus: fluorescence polarisation.
In assay [2] the target is T1, ΔNp63α (RLuc- and YFP-fusions, full length) (human), Q9H3D4.
T1 chain: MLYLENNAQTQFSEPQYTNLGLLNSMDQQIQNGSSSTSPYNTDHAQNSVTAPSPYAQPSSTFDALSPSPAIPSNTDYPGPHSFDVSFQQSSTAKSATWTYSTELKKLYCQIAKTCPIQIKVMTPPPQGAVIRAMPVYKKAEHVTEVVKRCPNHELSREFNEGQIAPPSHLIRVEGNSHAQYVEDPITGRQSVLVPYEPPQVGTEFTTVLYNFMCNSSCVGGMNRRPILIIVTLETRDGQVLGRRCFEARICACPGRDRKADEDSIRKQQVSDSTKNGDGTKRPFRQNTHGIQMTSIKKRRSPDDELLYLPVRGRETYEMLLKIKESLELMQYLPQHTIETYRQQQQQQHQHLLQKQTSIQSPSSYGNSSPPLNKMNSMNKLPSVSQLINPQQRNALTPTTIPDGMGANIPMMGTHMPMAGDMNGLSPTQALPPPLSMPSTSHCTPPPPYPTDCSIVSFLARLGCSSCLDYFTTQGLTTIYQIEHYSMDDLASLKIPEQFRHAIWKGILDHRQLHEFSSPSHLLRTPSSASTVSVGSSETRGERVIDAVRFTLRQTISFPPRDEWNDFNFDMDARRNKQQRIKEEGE
The assay can be described thus: FRET or BRET. Conditions: remark: other sources report otherwise. In general terms: In BRET a luciferase serves as donor, and the signal depends on an acceptor being close.

As for “human IMPα1ΔIBB (importin α1 lacking the IMPβ1 binding domain) (domain or fragment)”, the Kd (usually the concentration at which binding is half-saturated) in assay [1] came out at 4.3 nM. Consider “human IMPα3ΔIBB (importin α3 lacking the IMPβ1 binding domain) (domain or fragment)”, for which the dissociation constant Kd in assay [1] amounted to 6.7 nM. For the molecule “human IMPα7ΔIBB (importin α7 lacking the IMPβ1 binding domain) (domain or fragment)”, the Kd in assay [1] amounted to 4.6 nM.

B1: ΔNp63α (RLuc- and YFP-fusions, full length), Q9H3D4-2 1-586 (natural protein)
chain: MLYLENNAQTQFSEPQYTNLGLLNSMDQQIQNGSSSTSPYNTDHAQNSVTAPSPYAQPSSTFDALSPSPAIPSNTDYPGPHSFDVSFQQSSTAKSATWTYSTELKKLYCQIAKTCPIQIKVMTPPPQGAVIRAMPVYKKAEHVTEVVKRCPNHELSREFNEGQIAPPSHLIRVEGNSHAQYVEDPITGRQSVLVPYEPPQVGTEFTTVLYNFMCNSSCVGGMNRRPILIIVTLETRDGQVLGRRCFEARICACPGRDRKADEDSIRKQQVSDSTKNGDGTKRPFRQNTHGIQMTSIKKRRSPDDELLYLPVRGRETYEMLLKIKESLELMQYLPQHTIETYRQQQQQQHQHLLQKQTSIQSPSSYGNSSPPLNKMNSMNKLPSVSQLINPQQRNALTPTTIPDGMGANIPMMGTHMPMAGDMNGLSPTQALPPPLSMPSTSHCTPPPPYPTDCSIVSFLARLGCSSCLDYFTTQGLTTIYQIEHYSMDDLASLKIPEQFRHAIWKGILDHRQLHEFSSPSHLLRTPSSASTVSVGSSETRGERVIDAVRFTLRQTISFPPRDEWNDFNFDMDARRNKQQRIKEEGE
Regarding B1, the BRET ratio in assay [2] came out at 0.18.
